Target: T1, human Mullerian inhibiting substance Type II receptor (MISIIR) (human, UniProt Q16671 18-573)
T1 construct: whole, on cells; also called MIS type II receptor; AMHR2
T1 sequence (looked up): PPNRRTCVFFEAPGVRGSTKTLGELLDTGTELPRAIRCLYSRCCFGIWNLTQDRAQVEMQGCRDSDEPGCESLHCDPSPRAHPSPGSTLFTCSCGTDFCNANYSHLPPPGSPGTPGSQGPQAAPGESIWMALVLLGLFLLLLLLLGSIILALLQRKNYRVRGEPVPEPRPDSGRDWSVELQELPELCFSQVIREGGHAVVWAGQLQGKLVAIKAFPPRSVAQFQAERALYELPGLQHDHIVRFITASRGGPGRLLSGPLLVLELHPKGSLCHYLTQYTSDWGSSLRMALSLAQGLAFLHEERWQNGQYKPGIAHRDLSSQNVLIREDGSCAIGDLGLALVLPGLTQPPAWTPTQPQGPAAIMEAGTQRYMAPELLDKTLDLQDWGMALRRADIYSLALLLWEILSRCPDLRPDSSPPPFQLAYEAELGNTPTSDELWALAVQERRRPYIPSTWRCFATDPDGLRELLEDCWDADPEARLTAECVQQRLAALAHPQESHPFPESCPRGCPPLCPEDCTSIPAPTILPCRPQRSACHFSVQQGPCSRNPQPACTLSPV
Test: inferred by the filing from the reporter gene assay (block of MIS-induced signaling); no direct binding assay
Protocol: FIG. 3 provides a schematic of a reporter gene assay to measure MISIIR signaling. The Tlx-2 (T-cell leukemia, homeobox 2) gene is a downstream target of BMP and MIS signaling (Tang et al. (1998) Development 125:1877-1887). Genes encoding mouse TLX2-luciferase and human MISIIR were stably transfected into P19 mouse neuroblastoma cells that normally lack MISIIR.
The ability of the new hybrid scFv molecules to block MIS binding to MISIIR was determined using a reporter gene assay in which signaling through MISIIR on the surface of […] cells triggers luminescence in the cells (FIG. 3). MIS was added to the cells in the presence or absence of the different scFv molecules and the resulting luminescence was measured (FIG. 4).

B1: RAD-1-0003 (E3 1DQH3) scFv (scFv)
scFv: MAQVQLQQSGPGLVKPSQTLSLTCAISGDSVSSKSATWNWIRQSPSRGLEWLGRTYYRSKWYNDYAESVKSRITIKPDTTKNHFSLQLKSVTPEDTAVYYCASPPGGKLLISLSEERISAHHVPMDYWGQGTLVTVSSSASGAELGGGGSGGGGSGGGGSTSQAVLTQPSSASGTPGQRVTISCSGSSSNIGAGYDVHWYQQLPGTAPKLLIYGNSNRPSGVPDRFSGSKSGTSASLAITGLQAEDEADYYCQSYDSSLSAHNYVFGTGTKVTLLG
notes: Hybrid scFv on the E3 framework with the MIS loop in the heavy chain CDR3, in a different orientation than RAD-1-0001
  binding result: binds

Reference: patent US20140234213A1 (FOX CHASE CANCER CENTER, published 2014)
